{"source": "paper PMC12361007", "about": "(AMB Express, 2025)", "binders": {"B1": {"name": "rhIL-22BP-ABD (recombinant human IL-22 binding protein fused to the albumin-binding domain ABD) (other)", "chain": "TQSTHESLKPQRVQFQSRNFHNILQWQPGRALTGNSSVYFVQYKIYGQRQWKNKEDCWGTQELSCDLTSETSDIQEPYYGRVRAASAGSYSEWSMTPRFTPWWETKIDPPVMNITQVNGSLLVILHAPNLPYRYQKEKNVSIEDYYELLYRVFIINNSLEKEQKVYEGAHRAVEIEALTPHSSYCVVAEIYQPMLDRRSQRSEERCVEIPLAEAKVLANRELDKYGVSDYYKNLINNAKTVEGVKALIDEILAALP"}}, "biological_target": "human serum albumin (human, UniProt P02768 25-609)", "assay": "BLI", "data": [{"binder": "B1", "values": [{"measurement": "Kd", "value": 1.15, "unit": "µM"}]}]}
